Results from patent US20260217820A1 (ERASMUS UNIVERSITY MEDICAL CENTER ROTTERDAM, published 2026).

B1: recombinant monoclonal antibody PR004382 (antibody, human IgG1, kappa)
heavy: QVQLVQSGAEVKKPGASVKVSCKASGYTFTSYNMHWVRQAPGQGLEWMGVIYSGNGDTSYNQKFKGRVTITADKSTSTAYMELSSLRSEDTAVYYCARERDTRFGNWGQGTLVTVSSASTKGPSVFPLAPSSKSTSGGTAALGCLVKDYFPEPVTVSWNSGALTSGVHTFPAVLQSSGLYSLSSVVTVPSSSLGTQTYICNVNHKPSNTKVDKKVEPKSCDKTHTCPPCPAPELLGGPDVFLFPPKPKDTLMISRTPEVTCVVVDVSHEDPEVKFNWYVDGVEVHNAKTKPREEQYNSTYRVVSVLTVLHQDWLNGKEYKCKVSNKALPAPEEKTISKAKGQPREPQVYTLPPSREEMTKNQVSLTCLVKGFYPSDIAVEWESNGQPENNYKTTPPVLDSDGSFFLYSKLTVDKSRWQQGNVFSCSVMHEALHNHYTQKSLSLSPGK
light: DIVMTQSPDSLAVSLGERATINCRASESVDIYGNSFMHWYQQKPGQPPKLLIYLASNLESGVPDRFSGSGSGTDFTLTISSLQAEDVAVYYCQQNNEDPYTFGGGTKVEIKRTVAAPSVFIFPPSDEQLKSGTASVVCLLNNFYPREAKVQWKVDNALQSGNSQESVTEQDSKDSTYSLSSTLTLSKADYEKHKVYACEVTHQGLSSPVTKSFNRGEC
notes: compared with a human IgG1 isotype control; also called PR004382 anti-CD117 antibody; copies: 2 + 2
B2: PR001310 anti-HELxCD3 control Bispecific T cell engager (bispecific antibody)
chain: DIVLTQSPAIMSASPGEKVTMTCSASSSVNYMYWYQQKSGTSPKRWIYDTSKLASGVPVRFSGSGSGTSYSLTISSMETEDAAEYYCQQWGRNPTFGGGTKLEIKRTVAAPSVFIFPPSDEQLKSGTASVVCLLNNFYPREAKVQWKVDNALQSGNSQESVTEQDSKDSTYSLSSTLTLSKADYEKHKVYACEVTHQGLSSPVTKSFNRGECEVQLVESGGGLVQPGGSLKLSCAASGFTFNTYAMNWVRQASGKGLEWVGRIRSKYNNYATYYADSVKDRFTISRDDSKSTLYLQMNSLKTEDTAVYYCVRHGNFGNSYVSWFAYWGQGTLVTVSSASTKGPSVFPLAPSSKSTSGGTAALGCLVKDYFPEPVTVSWNSGALTSGVHTFPAVLQSSGLYSLSSVVTVPSSSLGTQTYICNVNHKPSNTKVDKKVEPKSC
heavy: EVQLQQSGAELMKPGASVKISCKASGYTFSDYWIEWVKQRPGHGLEWIGEILPGSGSTNYHERFKGKATFTADTSSSTAYMQLNSLTSEDSGVYYCLHGNYDFDGWGQGTTLTVSSASTKGPSVFPLAPSSKSTSGGTAALGCLVKDYFPEPVTVSWNSGALTSGVHTFPAVLQSSGLYSLSSVVTVPSSSLGTQTYICNVNHKPSNTKVDKKVEPKSC
light: QAVVTQEPSLTVSPGGTVTLTCRSSTGAVTTSNYANWVQQKPGQAPRGLIGGTNKRAPWTPARFSGSLLGDKAALTLLGAQPEDEAEYFCALWYSNLWVFGGGTKLTVLGQPKAAPSVTLFPPSSEELQANKATLVCLISDFYPGAVTVAWKADSSPVKAGVETTTPSKQSNNKYAASSYLSLTPEQWKSHRSYSCQVTHEGSTVEKTVAPTECS
notes: Control engager; HEL = hen egg lysozyme; Same CD3 arm as PR004384; also called control anti-HELxCD3 Bispecific T cell engager

Experiments:
[1] = target: T1, CD117 protein (SinoBiological, cat #11996-H08H) (UniProt P10721-2 26-516); test: ELISA, CD117 protein coated
T1 construct: Bought reagent

[2] = target: T2, Human CD16a (V176) protein (NovoProtein, cat #C441) (human, UniProt P08637 17-208); test: BLI (Octet Red 96e), CD16a (V176) on HIS1K sensors, antibody in solution, 1:1 global fit
T2 construct: also called CD16a receptor

[3] = target: T1, CD117 protein (SinoBiological, cat …); test: ELISA on plate-coated CD117 protein, detection with anti-human IgG (Fc specific)-peroxidase, OD at 450 nm
[4] = target: T3, Rhesus Macaque CD117 on CD34-enriched bone marrow hematopoietic stem cells (Rhesus Macaque, UniProt F6V858 26-976); test: flow cytometry on Rhesus Macaque CD34-enriched bone marrow cells gated on CD34+ CD117+, R-Phycoerythrin goat anti-human F(ab')2 detection
T3 construct: whole, on cells; also called CD117 of Rhesus Macaque; Rhesus Macaque CD117-positive hematopoietic stem cells

T2 sequence (P08637 17-208 F176V limits assumed): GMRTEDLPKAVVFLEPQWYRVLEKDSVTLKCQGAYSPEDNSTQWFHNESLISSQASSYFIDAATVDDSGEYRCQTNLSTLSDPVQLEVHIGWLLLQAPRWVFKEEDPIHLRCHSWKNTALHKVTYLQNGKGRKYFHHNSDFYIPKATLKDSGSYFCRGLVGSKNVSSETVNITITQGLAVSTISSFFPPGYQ
T1 sequence (P10721 other isoform, or with tags, fused parts or gaps H08H H08H limits assumed): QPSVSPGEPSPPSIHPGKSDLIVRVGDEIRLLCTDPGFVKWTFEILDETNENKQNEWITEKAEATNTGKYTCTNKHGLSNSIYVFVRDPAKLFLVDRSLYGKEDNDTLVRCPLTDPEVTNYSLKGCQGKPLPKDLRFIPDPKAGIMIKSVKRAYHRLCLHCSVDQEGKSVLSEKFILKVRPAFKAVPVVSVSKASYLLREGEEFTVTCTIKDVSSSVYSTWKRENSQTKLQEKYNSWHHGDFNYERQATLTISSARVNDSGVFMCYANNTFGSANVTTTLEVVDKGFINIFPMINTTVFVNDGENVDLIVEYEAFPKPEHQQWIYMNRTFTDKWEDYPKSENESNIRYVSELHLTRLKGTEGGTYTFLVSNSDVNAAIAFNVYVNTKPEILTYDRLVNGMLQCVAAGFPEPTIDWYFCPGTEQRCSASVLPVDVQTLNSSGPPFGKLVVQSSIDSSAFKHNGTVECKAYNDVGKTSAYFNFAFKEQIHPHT

Row | Binder | EC50 [1] [nM] | Kd [2] [nM] | koff [2] [s⁻¹] | kon [2] [M⁻¹ s⁻¹] | EC50 (read off the curve) [3] [nM] | binding result [4]
1 | B1 | 0.0155 | 27.2 | 0.00933 | 343000 | ~0.1 | –
2 | B2 | – | – | – | – | – | no binding
